{"source": "paper PMC7160020", "about": "(Biochemistry, 2020)", "key": {"[1]": {"target": "RNR β2 (Escherichia coli) (UniProt P69924)", "conditions": "cited from earlier work"}, "[2]": {"target": "RNR β2 (Escherichia coli) (UniProt P69924)", "conditions": "cited from earlier work", "remark": "listed apart in the source"}, "[3]": {"target": "T1, His6-α2 (E. coli class Ia ribonucleotide reductase α subunit, NrdA) (E. coli, UniProt P00452 1-761)", "T1 sequence (looked up)": "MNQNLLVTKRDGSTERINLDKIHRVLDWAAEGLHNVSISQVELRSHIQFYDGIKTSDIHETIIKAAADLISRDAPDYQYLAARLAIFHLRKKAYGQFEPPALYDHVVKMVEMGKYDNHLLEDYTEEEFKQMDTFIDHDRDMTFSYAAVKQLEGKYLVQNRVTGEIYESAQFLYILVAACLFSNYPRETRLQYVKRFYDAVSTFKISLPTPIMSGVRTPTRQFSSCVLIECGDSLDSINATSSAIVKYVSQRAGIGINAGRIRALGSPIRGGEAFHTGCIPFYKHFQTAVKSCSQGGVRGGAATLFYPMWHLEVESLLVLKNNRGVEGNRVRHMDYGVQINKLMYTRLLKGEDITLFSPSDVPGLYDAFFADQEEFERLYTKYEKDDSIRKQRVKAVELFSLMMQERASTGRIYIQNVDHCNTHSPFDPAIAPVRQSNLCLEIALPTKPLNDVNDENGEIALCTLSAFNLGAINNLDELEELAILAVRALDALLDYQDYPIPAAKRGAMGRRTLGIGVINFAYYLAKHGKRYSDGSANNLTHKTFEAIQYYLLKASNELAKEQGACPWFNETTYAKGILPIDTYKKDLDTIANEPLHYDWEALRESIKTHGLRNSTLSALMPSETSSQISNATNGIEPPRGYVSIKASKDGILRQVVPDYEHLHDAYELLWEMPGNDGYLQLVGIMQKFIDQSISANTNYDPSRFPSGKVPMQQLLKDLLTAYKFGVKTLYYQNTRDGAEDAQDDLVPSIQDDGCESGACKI", "assay": "stopped-flow fluorescence spectroscopy"}, "[4]": {"target": "dansyl-β2 (C268S/C305S/V365C-β2 labeled with BADAN) (E. coli)", "assay": "stopped-flow fluorescence spectroscopy"}, "[5]": {"target": "dansyl-β2 (C268S/C305S/V365C-β2 labeled with BADAN) (E. coli)", "assay": "stopped-flow fluorescence spectroscopy", "remark": "listed apart in the source"}, "[6]": {"target": "dansyl-β2 (C268S/C305S/V365C-β2 labeled with BADAN) (E. coli)", "assay": "stopped-flow fluorescence spectroscopy", "remark": "listed apart in the source"}, "[7]": {"target": "dansyl-β2 (C268S/C305S/V365C-β2 labeled with BADAN) (E. coli)", "assay": "stopped-flow fluorescence spectroscopy", "remark": "listed apart in the source"}}, "note": "Where two headings read alike, the source gives them in different places.", "data": [{"molecule": "RNR α2 (from UniProt P00452)", "values": [{"measurement": "Kd", "setting": "[1]", "value": 200, "unit": "nM"}, {"measurement": "Kd", "setting": "[2]", "value": 400, "unit": "nM"}]}, {"molecule": "met-β2 (wt-β2 with the tyrosyl radical reduced by hydroxyurea) (enzyme, E. coli, UniProt P69924 1-376, looked up, diferric center, Y122• reduced by hydroxyurea) MAYTTFSQTKNDQLKEPMFFGQPVNVARYDQQKYDIFEKLIEKQLSFFWRPEEVDVSRDRIDYQALPEHEKHIFISNLKYQTLLDSIQGRSPNVALLPLISIPELETWVETWAFSETIHSRSYTHIIRNIVNDPSVVFDDIVTNEQIQKRAEGISSYYDELIEMTSYWHLLGEGTHTVNGKTVTVSLRELKKKLYLCLMSVNALEAIRFYVSFACSFAFAERELMEGNAKIIRLIARDEALHLTGTQHMLNLLRSGADDPEMAEIAEECKQECYDLFVQAAQQEKDWADYLFRDGSMIGLNKDILCQYVEYITNIRMQAVGLDLPFQTRSNPIPWINTWLVSDNVQVAPQEVEVSSYLVGQIDSEVDTDDLSNFQL", "values": [{"measurement": "binding result", "setting": "[3]", "value": "binds"}]}, {"molecule": "His6-α2 (E. coli class Ia ribonucleotide reductase α subunit, NrdA) (enzyme) MNQNLLVTKRDGSTERINLDKIHRVLDWAAEGLHNVSISQVELRSHIQFYDGIKTSDIHETIIKAAADLISRDAPDYQYLAARLAIFHLRKKAYGQFEPPALYDHVVKMVEMGKYDNHLLEDYTEEEFKQMDTFIDHDRDMTFSYAAVKQLEGKYLVQNRVTGEIYESAQFLYILVAACLFSNYPRETRLQYVKRFYDAVSTFKISLPTPIMSGVRTPTRQFSSCVLIECGDSLDSINATSSAIVKYVSQRAGIGINAGRIRALGSPIRGGEAFHTGCIPFYKHFQTAVKSCSQGGVRGGAATLFYPMWHLEVESLLVLKNNRGVEGNRVRHMDYGVQINKLMYTRLLKGEDITLFSPSDVPGLYDAFFADQEEFERLYTKYEKDDSIRKQRVKAVELFSLMMQERASTGRIYIQNVDHCNTHSPFDPAIAPVRQSNLCLEIALPTKPLNDVNDENGEIALCTLSAFNLGAINNLDELEELAILAVRALDALLDYQDYPIPAAKRGAMGRRTLGIGVINFAYYLAKHGKRYSDGSANNLTHKTFEAIQYYLLKASNELAKEQGACPWFNETTYAKGILPIDTYKKDLDTIANEPLHYDWEALRESIKTHGLRNSTLSALMPSETSSQISNATNGIEPPRGYVSIKASKDGILRQVVPDYEHLHDAYELLWEMPGNDGYLQLVGIMQKFIDQSISANTNYDPSRFPSGKVPMQQLLKDLLTAYKFGVKTLYYQNTRDGAEDAQDDLVPSIQDDGCESGACKI", "values": [{"measurement": "kon", "setting": "[4]", "value": "1.79e+08", "unit": "M⁻¹ s⁻¹"}, {"measurement": "kon", "setting": "[5]", "value": "1.56e+08", "unit": "M⁻¹ s⁻¹"}, {"measurement": "kon", "setting": "[6]", "value": "1.93e+08", "unit": "M⁻¹ s⁻¹"}, {"measurement": "k dissoc, faster phase of the biexponential decay (α4β4 state, with dATP)", "setting": "[7]", "value": 7, "unit": "s⁻¹"}, {"measurement": "k dissoc, slower phase of the biexponential decay (α4β4 state, with dATP)", "setting": "[7]", "value": 0.46, "unit": "s⁻¹"}, {"measurement": "koff", "setting": "[7]", "value": 109, "unit": "s⁻¹"}, {"measurement": "kon", "setting": "[7]", "value": "1.63e+08", "unit": "M⁻¹ s⁻¹"}]}]}
